Kd data for three molecules are collected here from patent publication US20240327542A1 (published 2024).

This assay addresses RAS-AMG510 (human;). Kind of assay: cell binding (Raji), flow cytometry; apparent KD.

Changes are numbered by the printed parent chain.

Chain of RAS-AMG510 (human;) (P61769 whole entry): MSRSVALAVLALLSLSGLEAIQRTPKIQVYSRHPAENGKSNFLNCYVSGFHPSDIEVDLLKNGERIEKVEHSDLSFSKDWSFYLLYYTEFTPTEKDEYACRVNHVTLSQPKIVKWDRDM

B1: AMRA3-18 hIgG1 (antibody, V domains shown)
VH: EVQLVESGGGLVQPGGSLRLSCAASGFTVSYSSIHWVRQAPGKGLEWVASISSSSGYTSYADSVKGRFTISADTSKNTAYLQMNSLRAEDTAVYYCARYAWWAHGLDYWGQGTLVTVSS
VL: DIQMTQSPSSLSASVGDRVTITCRASQSVSSAVAWYQQKPGKAPKLLIYSASSLYSGVPSRFSGSRSGTDFTLTISSLQPEDFATYYCQQGSYTYRLITFGQGTKVEIKR
Consider B1, for which the Kd was 57 nM.

B2: AMRA3-7 hIgG1 (antibody, V domains shown)
VH: EVQLVESGGGLVQPGGSLRLSCAASGFTFSSYSIHWVRQAPGKGLEWVASIYSSYGYTSYADSVKGRFTISADTSKNTAYLQMNSLRAEDTAVYYCARGGWYPAMDYWGQGTLVTVSS
VL: B1 VL with G91I, T94V, R96S
As to B2, the Kd was found to be 20 nM.

B3: AMRA11-2 hIgG1 (antibody, V domains shown)
VH: EVQLVESGGGLVQPGGSLRLSCAASGFTISSSSIHWVRQAPGKGLEWVASISSYSSSTYYADSVKGRFTISADTSKNTAYLQMNSLRAEDTAVYYCARYPYGWGWGGSGLDYWGQGTLVTVSS
VL: DIQMTQSPSSLSASVGDRVTITCRASQSVSSAVAWYQQKPGKAPKLLIYSASSLYSGVPSRFSGSRSGTDFTLTISSLQPEDFATYYCQQSSSSLITFGQGTKVEIKR
Regarding B3, the Kd stood at 45 nM.
